Assay results: patent US20020151590, “Compositions and methods for regulating circadian rhythyms” (published 2002)

What was measured:
CLOCK:BMAL1 heterodimer = CLOCK:BMAL1 heterodimer (Homo sapiens, UniProt O15516;O00327 O15516:1-846,O00327:1-626); assay: EMSA; 150 mM KCl, 20 mM Tris-HCl pH 7.6, 5 mM MgCl2, 200 ng poly(dI-dC), 4 C; RXRa/RARa with 9cisRA/tRA tested as inhibitors; gel result not shown in text; conditions: tags: reticulocyte lysate (TNT), CMX plasmids; label: 32P
Description: (§1) A double-stranded [γ³²P]dATP-labeled consensus oligonucleotide, […] […] The samples were loaded directly onto 4% polyacrylamide-TBE gels to separate MOP4/CLOCK:BMAL1 bound DNA from free DNA. The gels were dried and analyzed on a PhosphorImager.

[1] = target: MOP4 (NPAS2):BMAL1 heterodimer (Homo sapiens, UniProt Q99743;O00327 Q99743:1-824,O00327:1-626); assay: as above; conditions: tags: reticulocyte lysate (TNT), CMX plasmids; label: 32P
Sequence of MOP4 (NPAS2):BMAL1 heterodimer (Q99743 whole entry, chain 1 of 2): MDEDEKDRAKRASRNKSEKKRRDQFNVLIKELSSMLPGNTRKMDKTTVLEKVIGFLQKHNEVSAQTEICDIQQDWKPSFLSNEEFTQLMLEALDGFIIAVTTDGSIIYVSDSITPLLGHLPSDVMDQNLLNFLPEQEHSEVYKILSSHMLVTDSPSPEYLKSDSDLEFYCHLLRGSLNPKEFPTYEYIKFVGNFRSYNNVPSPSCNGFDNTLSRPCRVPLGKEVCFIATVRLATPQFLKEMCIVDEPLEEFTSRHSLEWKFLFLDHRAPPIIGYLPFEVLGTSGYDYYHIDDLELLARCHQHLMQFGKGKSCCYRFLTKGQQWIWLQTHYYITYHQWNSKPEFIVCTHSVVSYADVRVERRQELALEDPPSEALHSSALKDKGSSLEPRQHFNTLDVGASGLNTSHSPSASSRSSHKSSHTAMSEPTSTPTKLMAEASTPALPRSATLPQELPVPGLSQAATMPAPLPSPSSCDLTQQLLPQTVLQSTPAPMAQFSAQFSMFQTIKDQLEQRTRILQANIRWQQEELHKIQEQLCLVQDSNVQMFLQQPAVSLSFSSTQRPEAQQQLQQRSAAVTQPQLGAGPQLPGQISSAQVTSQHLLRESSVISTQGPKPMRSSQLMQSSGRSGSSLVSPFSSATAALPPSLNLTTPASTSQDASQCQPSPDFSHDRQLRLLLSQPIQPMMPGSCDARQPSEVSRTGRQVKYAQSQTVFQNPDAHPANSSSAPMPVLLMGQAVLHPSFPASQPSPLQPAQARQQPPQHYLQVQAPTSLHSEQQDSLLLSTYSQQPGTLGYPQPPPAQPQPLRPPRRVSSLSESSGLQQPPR
Sequence of MOP4 (NPAS2):BMAL1 heterodimer (O00327 whole entry, chain 2 of 2): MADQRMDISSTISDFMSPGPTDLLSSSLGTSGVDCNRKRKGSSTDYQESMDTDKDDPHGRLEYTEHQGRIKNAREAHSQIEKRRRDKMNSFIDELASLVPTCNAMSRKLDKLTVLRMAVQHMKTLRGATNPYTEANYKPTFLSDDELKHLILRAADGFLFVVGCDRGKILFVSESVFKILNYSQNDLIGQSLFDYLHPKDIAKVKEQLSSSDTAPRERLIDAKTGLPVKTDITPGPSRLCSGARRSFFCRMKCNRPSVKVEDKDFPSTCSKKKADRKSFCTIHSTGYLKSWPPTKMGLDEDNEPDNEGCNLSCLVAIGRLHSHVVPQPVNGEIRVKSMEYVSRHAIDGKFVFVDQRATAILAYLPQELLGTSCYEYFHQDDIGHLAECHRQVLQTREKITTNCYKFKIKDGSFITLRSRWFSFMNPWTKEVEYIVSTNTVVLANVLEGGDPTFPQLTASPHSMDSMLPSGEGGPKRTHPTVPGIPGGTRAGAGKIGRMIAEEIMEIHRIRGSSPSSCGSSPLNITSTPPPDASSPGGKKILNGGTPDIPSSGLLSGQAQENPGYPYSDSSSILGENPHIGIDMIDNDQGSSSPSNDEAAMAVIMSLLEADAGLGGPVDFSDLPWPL
Description: as §1

Sequence of CLOCK:BMAL1 heterodimer (O15516 whole entry, chain 1 of 2): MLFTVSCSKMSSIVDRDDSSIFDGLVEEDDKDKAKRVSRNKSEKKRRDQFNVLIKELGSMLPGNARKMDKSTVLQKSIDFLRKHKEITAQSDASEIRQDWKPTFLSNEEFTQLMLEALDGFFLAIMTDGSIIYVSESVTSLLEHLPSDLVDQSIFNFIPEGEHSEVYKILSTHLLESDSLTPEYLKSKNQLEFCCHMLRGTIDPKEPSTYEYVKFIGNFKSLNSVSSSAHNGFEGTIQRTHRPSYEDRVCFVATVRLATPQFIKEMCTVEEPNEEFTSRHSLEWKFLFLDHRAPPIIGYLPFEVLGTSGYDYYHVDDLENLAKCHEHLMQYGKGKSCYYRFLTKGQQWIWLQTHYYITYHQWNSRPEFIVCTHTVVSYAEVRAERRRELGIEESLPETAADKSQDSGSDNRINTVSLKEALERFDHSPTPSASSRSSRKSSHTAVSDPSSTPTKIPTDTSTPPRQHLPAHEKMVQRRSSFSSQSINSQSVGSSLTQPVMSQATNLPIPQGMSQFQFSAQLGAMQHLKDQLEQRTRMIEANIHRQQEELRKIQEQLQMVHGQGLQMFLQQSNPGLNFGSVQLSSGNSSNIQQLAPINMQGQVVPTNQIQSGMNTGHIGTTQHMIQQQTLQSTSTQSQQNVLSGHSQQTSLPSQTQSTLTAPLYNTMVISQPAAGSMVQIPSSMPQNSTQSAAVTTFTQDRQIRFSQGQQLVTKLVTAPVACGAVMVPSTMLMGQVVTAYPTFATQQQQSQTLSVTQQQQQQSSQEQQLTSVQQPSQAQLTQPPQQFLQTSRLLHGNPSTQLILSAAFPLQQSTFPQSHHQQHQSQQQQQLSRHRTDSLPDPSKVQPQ
Sequence of CLOCK:BMAL1 heterodimer (O00327 whole entry, chain 2 of 2): as the sequence (O00327 whole entry, chain 2 of 2) above

B1: E-box consensus oligonucleotide (dsDNA)
DNA 1: GGGACACGTGACCC
DNA 2: GGGTCACGTGTCCC
B1: binds (CLOCK:BMAL1 heterodimer); binds [1].
